Data on 17 proteins can be found in paper PMC10036635, “FTD-tau S320F mutation stabilizes local structure and allosterically promotes amyloid motif-dependent aggregation” (Nature Communications, 2023).

This data set deals with the molecule itself. Briefly: ThT fluorescence aggregation assay + negative-stain TEM; self-assembly of tau peptides at 200 µM; 1x PBS, 2 mM TCEP, pH 7, 25 µM ThT, 72 h; TEM of the endpoint.

B1: S320F_(295-324) tau peptide (peptide, UniProt P10636-8 295-324, looked up)
peptide: DNIKHVPGGGSVQIVYKPVDLSKVTFKCGS
notes: numbers count on: 2N4R tau (P10636-8); probably synthesised, acetylated and amidated like the others
For B1, the binding result is listed as “binds”.

B2: L315S_S320F_(295-330) tau peptide (peptide, UniProt P10636-8 295-330, looked up)
peptide: Ac-DNIKHVPGGGSVQIVYKPVDSSKVTFKCGSLGNIHH-NH2
notes: numbers count on: 2N4R tau (P10636-8); source: synthetic peptide (Genscript, > 95% purity)
B2: the binding result was “binds”.

B3: WT_(295-324) tau peptide (peptide, UniProt P10636-8 295-324, looked up)
peptide: DNIKHVPGGGSVQIVYKPVDLSKVTSKCGS
notes: as for B1
For B3, the binding result is listed as “binds”.

B4: S320I_I328V tau peptide (295-330) (peptide, UniProt P10636-8 295-330, looked up)
peptide: Ac-DNIKHVPGGGSVQIVYKPVDLSKVTIKCGSLGNVHH-NH2
notes: as for B2
B4: the binding result is recorded as “binds”.

B5: S324F_(295-330) tau peptide (peptide, UniProt P10636-8 295-330, looked up)
peptide: Ac-DNIKHVPGGGSVQIVYKPVDLSKVTSKCGFLGNIHH-NH2
notes: as for B2
As for B5, the binding result is “binds”.

B6: S320V tau peptide (295-330) (peptide, UniProt P10636-8 295-330, looked up)
peptide: Ac-DNIKHVPGGGSVQIVYKPVDLSKVTVKCGSLGNIHH-NH2
notes: as for B2
Turning to B6, the binding result is given as “binds”.

B7: P301S_I328S_(295-330) tau peptide (peptide, UniProt P10636-8 295-330, looked up)
peptide: Ac-DNIKHVSGGGSVQIVYKPVDLSKVTSKCGSLGNSHH-NH2
notes: as for B2
As for B7, the binding result is “binds”.

B8: WT_(306-324) tau peptide (peptide, UniProt P10636-8 306-324, looked up)
peptide: Ac-VQIVYKPVDLSKVTSKCGS-NH2
notes: as for B2
As for B8, the binding result was “binds”.

B9: S320F_(306-324) tau peptide (peptide, UniProt P10636-8 306-324, looked up)
peptide: Ac-VQIVYKPVDLSKVTFKCGS-NH2
notes: as for B2
On to B9, for which the binding result is “binds”.

B10: WT_(295-330) tau peptide (peptide, UniProt P10636-8 295-330, looked up)
peptide: Ac-DNIKHVPGGGSVQIVYKPVDLSKVTSKCGSLGNIHH-NH2
notes: as for B2
As for B10, the binding result is recorded as “binds”.

B11: S320I tau peptide (295-330) (peptide, UniProt P10636-8 295-330, looked up)
peptide: Ac-DNIKHVPGGGSVQIVYKPVDLSKVTIKCGSLGNIHH-NH2
notes: as for B2
In the case of B11, the binding result was “binds”.

B12: S320F_(306-330) tau peptide (peptide, UniProt P10636-8 306-330, looked up)
peptide: Ac-VQIVYKPVDLSKVTFKCGSLGNIHH-NH2
notes: as for B2
Take B12: the binding result is “binds”.

B13: S320F_(295-330) tau peptide (peptide, UniProt P10636-8 295-330, looked up)
peptide: Ac-DNIKHVPGGGSVQIVYKPVDLSKVTFKCGSLGNIHH-NH2
notes: as for B2
B13: the binding result is on record as “binds”.

B14: S320F_L325S_(295-330) tau peptide (peptide, UniProt P10636-8 295-330, looked up)
peptide: Ac-DNIKHVPGGGSVQIVYKPVDLSKVTFKCGSSGNIHH-NH2
notes: as for B2
Regarding B14, the binding result is “binds”.

B15: S320F_I328S_(295-330) tau peptide (peptide, UniProt P10636-8 295-330, looked up)
peptide: Ac-DNIKHVPGGGSVQIVYKPVDLSKVTFKCGSLGNSHH-NH2
notes: as for B2
With B15, the binding result is given as “binds”.

B16: P301S_(295-330) tau peptide (peptide, UniProt P10636-8 295-330, looked up)
peptide: Ac-DNIKHVSGGGSVQIVYKPVDLSKVTSKCGSLGNIHH-NH2
notes: as for B2
Regarding B16, the binding result is recorded as “binds”.

B17: WT_(306-330) tau peptide (peptide, UniProt P10636-8 306-330, looked up)
peptide: Ac-VQIVYKPVDLSKVTSKCGSLGNIHH-NH2
notes: as for B2
In the case of B17, the binding result was “binds”.
